Usually Kd stands for the equilibrium constant for the complex coming apart. What is called koff is the first-order rate constant of dissociation.

No end group written: not given here.

Kd and koff data for four molecules are collected here from paper PMC4712133 (2016).

Assay [1] has as its target T1, osteopontin (OPN), recombinant human (human, UniProt P10451 17-314). The assay is described as follows: SPR. For orientation: SPR reads the build-up and loss of mass on a sensor chip optically.
The target in assay [2] is T1, osteopontin (OPN), recombinant human. The assay is described as follows: SPR. The source holds these as a separate data set.

T1 sequence (P10451 17-314): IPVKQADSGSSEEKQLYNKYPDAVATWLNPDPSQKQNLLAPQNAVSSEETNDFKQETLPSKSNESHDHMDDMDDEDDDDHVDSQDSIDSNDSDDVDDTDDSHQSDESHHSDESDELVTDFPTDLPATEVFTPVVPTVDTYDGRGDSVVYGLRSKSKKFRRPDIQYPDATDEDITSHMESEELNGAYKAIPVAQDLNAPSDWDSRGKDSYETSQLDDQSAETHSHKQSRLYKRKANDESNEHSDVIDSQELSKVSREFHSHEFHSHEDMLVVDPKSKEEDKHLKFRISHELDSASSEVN

For the molecule GIINTLQKYYCRVRGGRCAVLSCLPKEEQIGKCSTRGRKCCRRKK (natural protein, ends and bridges not checked; cysteine pairing not given here) [human beta defensin-3 (hBD-3)], in assay [1], the Kd came out at 790 nM. Further, the koff in assay [2] turned out to be 0.02 s⁻¹.

B1: lactoferrin purified from human milk (natural protein)
chain: GRRRSVQWCAVSQPEATKCFQWQRNMRKVRGPPVSCIKRDSPIQCIQAIAENRADAVTLDGGFIYEAGLAPYKLRPVAAEVYGTERQPRTHYYAVAVVKKGGSFQLNELQGLKSCHTGLRRTAGWNVPIGTLRPFLNWTGPPEPIEAAVARFFSASCVPGADKGQFPNLCRLCAGTGENKCAFSSQEPYFSYSGAFKCLRDGAGDVAFIRESTVFEDLSDEAERDEYELLCPDNTRKPVDKFKDCHLARVPSHAVVARSVNGKEDAIWNLLRQAQEKFGKDKSPKFQLFGSPSGQKDLLFKDSAIGFSRVPPRIDSGLYLGSGYFTAIQNLRKSEEEVAARRARVVWCAVGEQELRKCNQWSGLSEGSVTCSSASTTEDCIALVLKGEADAMSLDGGYVYTAGKCGLVPVLAENYKSQQSSDPDPNCVDRPVEGYLAVAVVRRSDTSLTWNSVKGKKSCHTAVDRTAGWNIPMGLLFNQTGSCKFDEYFSQSCAPGSDPRSNLCALCIGDEQGENKCVPNSNERYYGYTGAFRCLAENAGDVAFVKDVTVLQNTDGNNNEAWAKDLKLADFALLCLDGKRKPVTEARSCHLAMAPNHAVVSRMDKVERLKQVLLHQQAKFGRNGSDCPDKFCLFQSETKNLLFNDNTECLARLHGKTTYEKYLGPQYVAGITNLKKCSTSPLLEACEFLRK
On to B1, for which, in assay [1], the Kd amounted to 2500 nM. The koff in assay [2] was found to be 0.01 s⁻¹.

B2: secretory leukocyte peptidase inhibitor (SLPI), recombinant human (natural protein)
chain: SGKSFKAGVCPPKKSAQCLRYKKPECQSDWQCPGKKRCCPDTCGIKCLDPVDTPNPTRRKPGKCPVTYGQCLMLNPPNFCEMDGQCKRDLKCCMGMCGKSCVSPVKA
In the case of B2, the Kd in assay [1] is 430 nM. In addition, the koff in assay [2] was 0.0016 s⁻¹.

B3: midkine (natural protein)
chain: VAKKKDKVKKGGPGSECAEWAWGPCTPSSKDCGVGFREGTCGAQTQRIRCRVPCNWKKEFGADCKYKFENWGACDGGTGTKVRQGTLKKARYNAQCQETIRVTKPCTPKTKAKAKAKKGKGKD
Consider B3, for which the Kd in assay [1] came out at 27 nM.
